Experimental data: patent US20220281997A1 (published 2022)

Legend:
Test in all cases: SPR
AS675 VHH = target: AS675 VHH
AS656 VHH = target: AS656 VHH
AS519 VHH = target: AS519 VHH
AS325 VHH = target: AS325 VHH
AS200 VHH = target: AS200 VHH
AS588 VHH = target: AS588 VHH
AS154 VHH = target: AS154 VHH
AS988 VHH = target: AS988 VHH
[1] = target: His-tag camel-derived nanobody AS718 VHH-His
AS673 VHH = target: AS673 VHH
Chain of AS673 VHH (VHH, as listed by the source): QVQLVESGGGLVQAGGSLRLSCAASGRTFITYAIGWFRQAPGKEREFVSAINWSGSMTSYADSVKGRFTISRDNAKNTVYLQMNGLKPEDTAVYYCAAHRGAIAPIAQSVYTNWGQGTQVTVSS

Chain of AS519 VHH (VHH, as listed by the source): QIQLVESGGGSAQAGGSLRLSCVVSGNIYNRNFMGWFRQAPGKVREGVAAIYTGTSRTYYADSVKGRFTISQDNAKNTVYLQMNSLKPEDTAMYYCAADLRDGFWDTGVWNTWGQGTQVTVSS
Chain of AS675 VHH (VHH, as listed by the source): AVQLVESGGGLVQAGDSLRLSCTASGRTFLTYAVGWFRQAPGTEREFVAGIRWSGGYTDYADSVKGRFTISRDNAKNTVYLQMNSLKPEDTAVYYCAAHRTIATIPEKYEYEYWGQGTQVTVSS
Chain of AS154 VHH (VHH, as listed by the source): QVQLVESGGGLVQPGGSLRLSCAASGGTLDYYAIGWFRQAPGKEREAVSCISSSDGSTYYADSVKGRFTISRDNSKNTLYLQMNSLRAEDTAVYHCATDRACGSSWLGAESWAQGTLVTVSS
Chain of AS988 VHH (VHH, as listed by the source): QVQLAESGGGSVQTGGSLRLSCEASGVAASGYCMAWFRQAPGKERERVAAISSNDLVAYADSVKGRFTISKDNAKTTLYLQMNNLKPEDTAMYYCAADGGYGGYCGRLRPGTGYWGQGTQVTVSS
Chain of AS325 VHH (VHH, as listed by the source): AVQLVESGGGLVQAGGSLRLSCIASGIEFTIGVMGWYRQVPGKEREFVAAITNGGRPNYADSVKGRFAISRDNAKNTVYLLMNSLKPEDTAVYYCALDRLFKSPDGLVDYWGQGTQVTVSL
Chain of AS656 VHH (VHH, as listed by the source): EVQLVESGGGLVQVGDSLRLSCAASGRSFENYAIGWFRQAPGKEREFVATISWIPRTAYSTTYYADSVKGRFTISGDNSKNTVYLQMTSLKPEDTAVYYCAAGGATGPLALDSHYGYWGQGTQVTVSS
Chain of AS588 VHH (VHH, as listed by the source): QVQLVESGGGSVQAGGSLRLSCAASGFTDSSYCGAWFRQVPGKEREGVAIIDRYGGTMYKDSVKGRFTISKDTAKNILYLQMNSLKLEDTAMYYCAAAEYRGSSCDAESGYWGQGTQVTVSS
Chain of His-tag camel-derived nanobody AS718 VHH-His (VHH, as listed by the source): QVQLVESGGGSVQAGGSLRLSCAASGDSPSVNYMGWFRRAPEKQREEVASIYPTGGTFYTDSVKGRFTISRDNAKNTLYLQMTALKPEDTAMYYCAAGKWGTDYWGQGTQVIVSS
Chain of AS200 VHH (VHH, as listed by the source): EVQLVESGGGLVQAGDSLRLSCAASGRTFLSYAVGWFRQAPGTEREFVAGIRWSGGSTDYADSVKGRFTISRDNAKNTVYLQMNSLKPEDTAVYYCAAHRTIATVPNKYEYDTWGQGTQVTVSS

B1: R166.C5 (antibody, V domains shown)
VH: QSVEESGGRLVTPGTPLTLTCTVSGFSLRNFAMSWVRQAPGKGLEWIGIIYSGGTRDYATWAKGRFTISKTSTTVDLKMTSPTTEDTATYFCARDRSPDYSAAFLLWGQGTLVTVSS
VL: IVMTQTPSSKSVPVGDTVTINCQASESVYSNNHLAWFQQKPGQPPKLLIYSASTLESGVPSRFKGSGSGTQFTLTISGVQCDDAATYYCAGYKSSDTDGTSFGGGTEVVVKG
Question: For B1, which Kd (AS675 VHH) is on record?
Answer: 34.5 pM

Question: And the Kd (AS656 VHH)?
Answer: 1.34 pM

Question: What about the Kd (AS519 VHH) of the same binder?
Answer: 1.66 pM

Question: What about the Kd (AS325 VHH) of the same binder?
Answer: 4.04 pM

Question: What about the Kd (AS200 VHH) of the same binder?
Answer: 11.8 pM

Question: What about the Kd (AS588 VHH) of the same binder?
Answer: 7.09 pM

Question: And the Kd (AS154 VHH)?
Answer: 402 pM

Question: And the Kd (AS988 VHH)?
Answer: 7.08 pM

Question: What about the Kd [1] of the same binder?
Answer: 3.47 pM

Question: And the Kd (AS673 VHH)?
Answer: 4.36 pM
